Biological target: transferrin receptor on NIH3T3 cells and on C2C12 and G8 myoblasts and myotubes (Mus musculus (Mouse)) (UniProt Q62351)

## human transferrin-polylysine conjugate (from UniProt P02787) (ligand)
  luciferase activity: < 1 log
